In US11820827B2, “Methods of treating myelodysplastic syndrome and acute myeloid leukemia with nonfucosylated anti-CD70 antibodies” (Seagen Inc., priority 2019, dated 2023):

How the values were obtained:
hFcγRIIIa V158 = target: T1, hFcγRIIIa V158 (Homo sapiens, UniProt P08637, F176V); assay: BLI binding kinetics to high affinity FcγRIIIa (158V) receptor variant; conditions: versus SGN-70
T1 construct: made in house

[1] = target: T2, cynomolgus FcγRIIIa receptor (Macaca fascicularis, UniProt Q8SPW2); assay: CHO-FcγRIIIa binding assay by flow cytometry (cynomolgus receptor); conditions: compared with SGN-70
T2 construct: expressed in transfected cells; host or cells: CHO
T2 sequence (Q8SPW2 17-254): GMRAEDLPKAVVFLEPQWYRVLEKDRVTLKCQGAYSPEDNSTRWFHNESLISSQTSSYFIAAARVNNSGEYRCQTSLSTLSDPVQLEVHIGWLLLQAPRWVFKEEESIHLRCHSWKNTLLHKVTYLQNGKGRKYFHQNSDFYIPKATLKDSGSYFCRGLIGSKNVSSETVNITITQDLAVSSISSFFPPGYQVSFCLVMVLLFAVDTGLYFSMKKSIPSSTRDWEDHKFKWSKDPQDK
Experimental: While BLI methodology is used to assess receptor affinity by monitoring binding kinetics, it is primarily set to monitor monovalent binding. To add to BLI data sets, flow cytometry was also performed (FIGS. 2A and 2B).
The CHO-FcγRIIIa binding assay was conducted as follows: • 1. Thaw cells: Cells were thawed on 11 Jun. 2019, and cultured in culture medium for 1 week to recover from freeze-thaw.
• 2. Wash: 60 million cells were washed 1× in PBS in 50-mL tubes. Cells were counted again and resuspended at 2.2×10^6/mL. Then 0.1 mL was pipetted per well • 3. Make 10× dilutions of antibody: The 10× dilutions were prepared (3 mg/mL, 1 mg/mL, 0.3 mg/mL, 0.1 mg/mL, 0.03 mg/mL, 0.01 mg/mL, 0.003 mg/mL, 0.001 mg/mL, and 0.0003 mg/mL in the dilution plate).
• 4. Aspirate: Wash was aspirated in wells and 100 μL of the corresponding antibody dilutions was pipetted with a multichannel pipet. The corresponding concentrations were 300, 100, 30, 10, 3, 1, […] μg/mL in triplicate. The concentrations were decreased vertically down the 96-well round bottom plate. • 5. […] Analyze samples: Samples were analyzed by flow cytometry in high throughput sampler (HTS) mode on the Attune. Median fluorescence intensity (MFI) was graphed (geomean), and equilibrium dissociation constant (KD) for each was calculated in PRIZM

[2] = tested on: MOLM-13 CD70+ AML cell line; assay: ADCC assay with NK effector cells, MOLM-13; assay type: cell-based, human; conditions: effector-to-target ratio 10:1, 4 h
Experimental: (§1) ADCC activity was evaluated using two CD70+AML cell lines as an ADCC target (FIGS. 3A and 3B). The AML cell lines, MOLM-13 (FIG. 3A) and NOMO-1 (FIG. 3B), were labeled and mixed with titrations of test antibodies or isotype control. Effector cells were isolated from cryopreserved normal donor PBMC using the EasySep Human NK Cell Enrichment Kit (Stem Cell Technologies). Effector cells were added at an effector-to-target cell ratio of 10:1 with […]. After a 4-h incubation, the percent specific cell lysis was calculated.
(§2) AML cell lines were grown in appropriate growth medium while incubating at 37° C. in 5% CO2. Suspended cells were counted using ViCell XR cell counter. The required volume of cells was mixed with fresh growth medium and plated at seeding densities of 0.5 M/mL.
(§3) The following protocol was used to assess ADCC activity: • 1. Two vials of huPBMCs were thawed in the 37° C. waterbath and resuspended in 1% FBS-RPMI media. Cells were spun down and then NK cells were isolated using the EasySep human NK cell enrichment kit following the manufacturer's protocol. • 2. […] Absorbance per well was measured using the SpectraMax 190 plate reader at 490 nm and the acquired values were converted to text file and exported to Excel and into GraphPad Prism for further data analysis. • 9. […]

[3] = tested on: NOMO-1 CD70+ AML cell line; assay: ADCC assay with NK effector cells, NOMO-1; assay type: cell-based, human; conditions: effector-to-target ratio 10:1, 4 h
Experimental: as §1, §2, §3

[4] = tested on: T regulatory cells (Treg) in PBMCs; assay: Treg depletion in PBMCs; assay type: cell-based, human; conditions: 24 hours
Experimental: At the end of the experiment cells were stained with Zombie Aqua Viability Dye and total viable Treg naïve and memory CD4 and CD8 T cell numbers were assessed. […] Fucosylated (WT Clone 13 IgG1) and nonfucosylated (SEA Clone 13 IgG1) antibodies targeting TIGIT were used as positive controls (FIG. 4E-4H).

[5] = tested on: Raji NHL Burkitt Lymphoma model; assay: Survival in the Raji NHL Burkitt Lymphoma mouse model; assay type: in vivo, SCID mice; conditions: for median survival post implant: untreated 20 days

T1 sequence (P08637 17-208 F176V): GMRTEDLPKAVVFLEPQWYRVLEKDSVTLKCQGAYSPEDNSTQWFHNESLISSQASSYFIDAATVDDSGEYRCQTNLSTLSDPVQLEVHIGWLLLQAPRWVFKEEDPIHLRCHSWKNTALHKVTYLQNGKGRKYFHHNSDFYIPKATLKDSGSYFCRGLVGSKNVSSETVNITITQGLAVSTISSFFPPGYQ

B1: SEA-CD70: humanized, nonfucosylated monoclonal IgG1 antibody targeting CD70 (nonfucosylated h1F6) (antibody, chains of the INN, looked up, V domains shown)
VH: QVQLVQSGAEVKKPGASVKVSCKASGYTFTNYGMNWVRQAPGQGLKWMGWINTYTGEPTYADAFKGRVTMTRDTSISTAYMELSRLRSDDTAVYYCARDYGDYGMDYWGQGTTVTVSS
VL: DIVMTQSPDSLAVSLGERATINCRASKSVSTSGYSFMHWYQQKPGQPPKLLIYLASNLESGVPDRFSGSGSGTDFTLTISSLQAEDVAVYYCQHSREVPWTFGQGTKVEIK
modifications: nonfucosylated
increase in binding affinity for the FcγRIIIa (158V) receptor (hFcγRIIIa V158): 8 fold | binding affinity to cynomolgus FcγRIIIa on CHO cells [1]: bound with higher affinity than SGN-70 | lysis of target cells in ADCC assay [2]: induced lysis of two CD70 positive AML cell lines in a dose-dependent fashion | lysis of target cells in ADCC assay [3]: induced lysis of two CD70 positive AML cell lines in a dose-dependent fashion | T regulatory cell depletion ([4]; donor homozygous for high affinity FcγRIIIa (V/V 158)): did not induce Treg cell depletion | T regulatory cell depletion ([4]; donor homozygous for low affinity FcγRIIIa (F/F 158)): Neither CD70 targeting antibody induced T regulatory cell depletion | median survival post implant ([5]; 0.3 mg/kg Q4dx4 intraperitoneally): 36.5 days | median survival post implant ([5]; 1 mg/kg Q4dx4 intraperitoneally): 68 days | total number of animals in group ([5]; 1 mg/kg, day 0): 8 | total number of animals in group ([5]; 1 mg/kg, day 23): 8 | total number of animals in group ([5]; 1 mg/kg, day 30): 7 | total number of animals in group ([5]; 1 mg/kg, day 54): 6 | total number of animals in group ([5]; 1 mg/kg, day 61): 5 | total number of animals in group ([5]; 1 mg/kg, day 75): 4 | total number of animals in group ([5]; 1 mg/kg, day 90): 3 | median survival post implant ([5]; 3 mg/kg Q4dx4 intraperitoneally): 69.5 days | total number of animals in group ([5]; 3 mg/kg, day 0): 8 | total number of animals in group ([5]; 3 mg/kg, day 28): 8 | total number of animals in group ([5]; 3 mg/kg, day 33): 7 | total number of animals in group ([5]; 3 mg/kg, day 64): 5 | total number of animals in group ([5]; 3 mg/kg, day 75): 4 | total number of animals in group ([5]; 3 mg/kg, day 90): 3 | survival compared to untreated mice ([5]; 0.3, 1 and 3 mg/kg): increased survival | total number of animals in group ([5]; .3 mg/kg, day 0): 8 | total number of animals in group ([5]; .3 mg/kg, day 5): 8 | total number of animals in group ([5]; .3 mg/kg, day 33): 7 | total number of animals in group ([5]; .3 mg/kg, day 35): 6 | total number of animals in group ([5]; .3 mg/kg, day 36): 5 | total number of animals in group ([5]; .3 mg/kg, day 37): 4 | total number of animals in group ([5]; .3 mg/kg, day 69): 3 | total number of animals in group ([5]; .3 mg/kg, day 90): 2
